Source: US7259254B2, “Mutants and assay system to identify USP/RXR ligands” (University of Kentucky Research Foundation, priority 2002, dated 2007)
Numbering of substitutions follows the chain as printed. Numbers in names are those of the source. Entries after “also recorded” stand apart in the source; their conditions may differ.

T1: His-tagged wild-type dUSP (Drosophila melanogaster, UniProt P20153)
T1 construct: His tag; made in house; host or cells: bacteria (pET32EK vector)
T1 sequence (P20153 1-508): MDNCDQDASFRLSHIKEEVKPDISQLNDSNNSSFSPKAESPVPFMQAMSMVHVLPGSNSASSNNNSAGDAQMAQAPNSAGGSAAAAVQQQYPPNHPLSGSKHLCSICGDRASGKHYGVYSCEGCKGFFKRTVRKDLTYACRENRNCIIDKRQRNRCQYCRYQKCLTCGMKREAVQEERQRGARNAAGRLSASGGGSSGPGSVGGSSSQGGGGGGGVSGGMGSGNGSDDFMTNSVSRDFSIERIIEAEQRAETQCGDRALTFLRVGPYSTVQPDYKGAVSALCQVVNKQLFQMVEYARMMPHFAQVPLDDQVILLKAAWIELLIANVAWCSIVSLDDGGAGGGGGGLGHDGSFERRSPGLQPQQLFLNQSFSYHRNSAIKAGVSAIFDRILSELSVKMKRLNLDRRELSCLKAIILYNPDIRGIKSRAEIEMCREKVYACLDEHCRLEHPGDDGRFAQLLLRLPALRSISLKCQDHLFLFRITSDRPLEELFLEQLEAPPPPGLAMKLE

B1: C472A/H475L: dUSP ligand-binding pocket double mutant, alanine at 472 and leucine at 475 (protein)
chain: T1 sequence (P20153 1-508) with C472A, H475L
B2: wild-type dUSP: wild type Drosophila melanogaster Ultraspiracle receptor, SEQ ID NO: 2 (protein)
chain: T1 sequence (P20153 1-508)
modifications: Drosophila melanogaster

Assays:
[1] = biological target: T1, His-tagged wild-type dUSP; assay: Intrinsic tryptophan fluorescence ligand-binding assay, wild-type dUSP; conditions: excitation 290 nm, emission 340 nm; 0.5 μm receptor
Method: The homodimer-enriched fraction of bacterial recombinant His-dUSP fusion protein was purified by nickel resin selection, elution with imidazole, centrifugal concentration, and then gel permeation chromatography (Superdex 200) with procedures and chemical sources exactly as already described previously Jones et al. (2000) Insect Biochem. Mol. Biol. 30, 671-679. The homodimer-enriched fraction of the purified His-USP fusion protein was raised to 2 ml of NaCl and a final concentration of 0.5 μm. For a fluorescence-based ligand-binding assay based on intrinsic tryptophan fluorescence Jones et al. (2001) Insect Biochem. Mol. Biol. 32, 33-49; Jones et al (1998) Biochem. J. 335, 79-84; 79-84; Jones et al. (2000) Biochem. J. 346, 233-240; Jones et al (1997) Proc. Natl. Acad. Sci. USA 94, 13499-13503, ligand or ethanol carrier was added and the receptor preparation excited at 290 nm and monitored for emission at 340 nm, until the signal from the receptor had stabilized. Fluorescence was measured three times for each sample, with standard deviation typically smaller than the graphical plotted datum point. Each fluorescence experiment was replicated on three or more independent occasions, each time with similar results.
The ability of the wild-type dUSP and dominant negative, ligand-binding pocket mutant dUSP to bind methyl epoxyfarnesoate was tested.

[2] = system: 4DR12Core reporter promoter in Sf9 cells (endogenous USP); assay: Dominant negative activity of transfected dUSP mutants on methyl epoxyfarnesoate activation of 4DR12Core reporter in Sf9 cells; type: cell-based, Spodoptera frugiperda; conditions: receptor overexpressed in Sf9 cells, 75 μm methyl epoxyfarnesoate
Source text: In another embodiment, mutant nuclear hormone receptors disclosed herein comprise amino acid substitutions that render the mutant to act as a “dominant negative.” Dominant negative proteins exploit protein-protein interactions, i.e., the interactions between a mutated protein produced by a transgene and the related native protein inside the cell. The mutant protein forms a dimer with an integral part of a wild type endogenous protein molecule. The mutant protein interacts with a whole range of native compatible gene products. Preferably, the mutant homodimerizes or heterodimerizes with an endogenous wild type partner to form a complex following ligand or independent of ligand binding. Preferably, as opposed to a complex of wild type monomers, a complex of a mutant and its endogenous wild type partner will be incapable of initiating transcription at a hormone receptor response reporter gene. Assays for determining dominant negative activity may be found in Examples 6 and 7 as well as FIG. 4.
Spodoptera frugiperda cell line, Sf9, was maintained and transfected as described previously Jones et al (1998) Biochem. J. 335, 79-84; Jones et al. (2000) Biochem. J. 346, 233-240. As an internal control to compare activities of different constructs, 0.3 μg of a constituitive heat-shock promoter-driven β-galactosidase gene was cotransfected. To study the role of USP in activation of the nuclear hormone receptor response element fused to core promoter in methyl epoxyfarnesoate-treated cells, cloned D. melangaster USP (dUSP) cDNA and its derivatives containing mutations in the ligand-binding pocket were cotransfected with the reporter and internal control plasmids. […] After 48 h of the treatment, the cells were harvested and the activity of the luciferase reporter was measured using a luciferase assay kit (Promega) in a multipurpose scintillation counter (Beckman, Fullerton, Calif.). β-Galactosidase activity was measured using chlorophenol red-[…] monosodium (CPRG; Roche Molecular Biochemicals) as a colorimetric substrate.
His-tagged dUSP dominant negative double mutant Cys472Ala/His475Leu (C472A/H475L) was over expressed in methyl epoxyfarnesoate-treated Sf9 cells that were cotransfected with the 4DR12Core reporter plasmid.
Under the model that overexpression of the C472A/H475L double mutant competed with endogenous USP in the pathways for transduction of the exogenous methyl epoxyfarnesoate signal, the level of effect of the double mutant ought to be dependent on its dose. […] This background of the blocked activation pathway was used to test whether activation by methyl epoxyfarnesoate treatment was actually dependent on the presence of wild-type USP. […] Again, over the range of the monotonic restoration of methyl epoxyfarnesoate-activated transcription, there was no effect of the transfected wild-type dUSP on the basal level of transcription in EtOH-treated controls.

[3] = system: DR12 motif; assay: Electrophoretic mobility shift assay of recombinant dUSP on DR12 probe; type: binding; conditions: 500 nm His-tagged receptor
Source text: Nuclear extracts were isolated from Sf9 cells as previously described Jones et al. (2001) Insect Biochem. Mol. Biol. 32, 33-49; Jones et al (1998) Biochem. J. 335, 79-84; 79-84; Jones et al. (2000) Biochem. J. 346, 233-240. For the DR12 probe, the double stranded DR12 oligonucleotide (sequence as shown above) was 5′ end-labelled with ^32P by T4 polynucleotide kinase (New England Biolabs Inc.), and then purified from a 20% native polyacrylamide gel. The same double stranded DR12 oligonucleotide was used in 100-fold excess as a self competitor. For the 4DR12Core probe, the 4DR12Core sequence was liberated from the vector as a 148-bp ClaI/HindIII fragment, and was 5′ end-labelled with ^32P and purified. The same, unlabelled fragment was used at 100-fold excess as a self competitor. As a negative control for specificity in gel shifts, the 36 bp BglII/KpnI polylinker region fragment of the pGL3 vector was liberated and recovered from low melting point agarose gels and used as a 100 nonself competitor (sequence: […], SEQ ID NO: 17). […]
In addition, both receptor preparations bound to the probe similarly in part as monomer and in part as homodimer. […] Thus, any difference detected in ligand binding of the two receptors is most reasonably inferred as arising from differences in the architecture inside the cavity of the ligand-binding pocket due to the C472A/H475L point mutations.

Molecule	effect on receptor intrinsic fluorescence (ligand binding), wild-type dUSP [1]	dominant negative effect on methyl epoxyfarnesoate-induced activation of 4DR12Core promoter [2]	binding to DR12 motif in gel shift [3]
CC(C)=CCCC(C)=CCCC(C)=CCO [farnesol]	do not have that effect		
B1		distinct suppression; also recorded: progressive suppression	similarly bound to a DR12 motif
B2			similarly bound to a DR12 motif
